Target: T1, HLA A2.1 (A*0201) (human)
T1 construct: whole, on cells; Endogenous HLA class I molecule of T2 cells and of EBV-transformed LCL; also called HLA A0201
Assay: T2 cell HLA A2.1 stabilisation assay, flow cytometry
Excerpt: This technique employs T2 cells which are peptide transporter-deficient and thus express low endogenous HLA class I levels due to inability to load peptide and stabilize HLA class I folding for surface expression.

B1: Hepsin peptide 170-178 (peptide)
peptide: SLGRWPWQV
notes: Synthesized peptide added to T2 cells or loaded onto LCL; also called hepsin 170-178
- binding result: binds

Source: patent publication US20110213337A1 (BOARD OF TRUSTEES OF THE UNIVERSITY OF ARKANSAS, published 2011)
